Experimental data taken from patent publication US10005846 (LIFEARC, dated 2018).
Values belong to the binder of their own block, whether it stands above or below them.

Legend:
[1] = target: T1, cynomolgus monkey TG2 (cynomolgus monkey, UniProt A0A2K5VXI8 1-687); experiment: ELISA on immobilised cynomolgus monkey TG2; r2 0.9986; EC50 95% confidence range 0.6682 to 0.8162 [panel A]
T1 construct: Bought recombinant protein; also called cynomogulus monkey TG2; cyano TG2
T1 sequence: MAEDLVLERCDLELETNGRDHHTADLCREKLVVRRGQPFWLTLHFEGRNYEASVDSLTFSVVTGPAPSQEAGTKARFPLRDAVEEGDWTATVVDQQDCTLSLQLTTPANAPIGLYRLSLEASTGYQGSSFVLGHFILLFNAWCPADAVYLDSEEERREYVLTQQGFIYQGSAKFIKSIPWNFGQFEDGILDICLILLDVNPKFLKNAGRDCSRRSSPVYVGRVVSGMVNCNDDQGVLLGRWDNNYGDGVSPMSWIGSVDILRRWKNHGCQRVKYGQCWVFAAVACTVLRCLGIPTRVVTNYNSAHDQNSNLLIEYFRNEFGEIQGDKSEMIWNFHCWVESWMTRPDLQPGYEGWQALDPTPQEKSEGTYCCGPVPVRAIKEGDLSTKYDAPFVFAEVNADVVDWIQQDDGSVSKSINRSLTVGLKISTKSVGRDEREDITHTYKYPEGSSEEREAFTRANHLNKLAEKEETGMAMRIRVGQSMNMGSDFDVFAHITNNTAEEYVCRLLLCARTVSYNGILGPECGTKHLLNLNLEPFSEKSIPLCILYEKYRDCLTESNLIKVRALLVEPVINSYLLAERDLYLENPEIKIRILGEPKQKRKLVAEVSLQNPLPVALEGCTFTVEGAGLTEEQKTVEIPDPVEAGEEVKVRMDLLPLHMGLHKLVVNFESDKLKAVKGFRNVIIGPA
Procedure: (§1) Antibody binding to human and cynomolgus monkey TG2 was determined in an ELISA assay. Clear polystyrene "Maxisorp" 96-well plates (Nunc) were coated with 50 ng purified human or cynomogulus monkey TG2 in 50 µl 0.05 M carbonate-bicarbonate buffer pH 9.6 at 4° C. overnight. Control wells were coated with 50 µl 100 µg/ml bovine serum albumin (BSA). Plates were washed 3× with 300 µl phosphate-buffered saline pH7.4 (PBS) containing 0.1% Tween 20 (PBST) and blocked with 300 µl 3% w/v Marvel skimmed milk in PBS for 1 hour at room temperature. After 3× wash with PBST, 50 µl protein-A purified chimeric or humanised anti-TG2 antibodies or human IgG1 kappa […] control antibody or CUB7402 (Abcam) were serially diluted 4-fold from a top concentration of 50 nM in PBS, and added to the plate in duplicate. […] After 3× washes with PBST, the plates were developed with 50 µl TMB substrate (Sigma) for 5 min at room temperature before stopping the reaction with 25 µl 0.5M H2SO4 and reading absorbance at 450 nm in a microtiter plate reader (BioTek EL808). Dose response curves were analysed and EC50 values and other statistical parameters determined using a 4-parameter logistical fit of the data (GraphPad Prism).

[2] = target: T2, human transglutaminase type 2 (TG2) (human, UniProt P21980 1-687); experiment: ELISA on immobilised human TG2; r2 0.998; EC50 95% confidence range 0.1860 to 0.2368 [panel A]
T2 construct: Recombinant full-length human TG2 (Zedira; cat; T002 in the Biacore work); Also used here for the endogenous TG2 of HepG2 lysate and HK-2 cells; also called hTG2; rhTG2
T2 sequence: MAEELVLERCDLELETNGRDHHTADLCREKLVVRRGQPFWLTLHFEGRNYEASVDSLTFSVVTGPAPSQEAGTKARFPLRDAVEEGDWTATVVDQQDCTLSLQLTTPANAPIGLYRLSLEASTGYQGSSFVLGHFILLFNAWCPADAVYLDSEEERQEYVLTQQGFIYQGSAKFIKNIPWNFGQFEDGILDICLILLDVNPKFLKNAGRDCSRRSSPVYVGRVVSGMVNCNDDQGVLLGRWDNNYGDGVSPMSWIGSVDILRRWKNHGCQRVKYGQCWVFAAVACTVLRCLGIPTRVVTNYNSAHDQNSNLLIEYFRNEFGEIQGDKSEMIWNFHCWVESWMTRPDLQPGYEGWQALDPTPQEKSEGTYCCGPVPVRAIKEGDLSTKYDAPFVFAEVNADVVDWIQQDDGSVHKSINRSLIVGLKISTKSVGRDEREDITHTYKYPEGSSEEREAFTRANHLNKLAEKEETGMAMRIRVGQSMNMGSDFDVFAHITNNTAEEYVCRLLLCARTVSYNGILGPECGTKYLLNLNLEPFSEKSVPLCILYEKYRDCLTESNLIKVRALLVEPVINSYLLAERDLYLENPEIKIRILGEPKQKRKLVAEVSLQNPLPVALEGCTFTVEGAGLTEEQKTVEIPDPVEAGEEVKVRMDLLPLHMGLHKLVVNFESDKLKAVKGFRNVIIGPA
Procedure: as §1

[3] = target: T1, cynomolgus monkey TG2; experiment: ELISA on immobilised cynomolgus monkey TG2; r2 0.9992; EC50 95% confidence range 0.3040 to 0.3536 [panel A]
Procedure: as §1

[4] = target: T2, human transglutaminase type 2 (TG2); experiment: cell-based or functional assay

- EC50 [1]: 0.739 nM
B1: cDH001 chimeric antibody (murine DH2 variable regions) (antibody, human IgG1, V domains shown)
VH: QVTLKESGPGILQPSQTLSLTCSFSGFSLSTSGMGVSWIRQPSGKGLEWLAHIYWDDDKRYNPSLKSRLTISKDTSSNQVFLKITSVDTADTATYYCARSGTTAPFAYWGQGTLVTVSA
VL: QIVLTQSPAIMSASPGEKVTMTCSASSSVSYMYWYQQKPGSSPRLLIYDTSNLASGVPVRFSGSGSGTSYSLTISRMEAEDAATFYCQQWSSSPLTFGAGTKLELK

- EC50 [2]: 0.21 nM
- EC50 [3]: 0.328 nM
B2: cDD9001 chimeric antibody (murine DD9 variable regions) (antibody, human IgG1, V domains shown)
VH: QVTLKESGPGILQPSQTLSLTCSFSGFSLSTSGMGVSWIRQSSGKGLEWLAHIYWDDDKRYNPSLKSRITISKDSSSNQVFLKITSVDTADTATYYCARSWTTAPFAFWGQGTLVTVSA
VL: QIVLTQSPAIMSASPGEKVTMTCSASSSVDYMYWYQQKPGSSPRLLIYDTSNLASGVPVRFSGSGSGTSYSLTISRMGAEDAATYYCQQWNSSPLTFGAGTKLELK

- half-maximal concentration of enzymatic inhibition, headed EC50 nM on the sheet, IC50 in the legend [panel A] [4]: 9.5 nM
B3: AB1 murine monoclonal antibody (antibody, V domains shown)
VH: EVQLVESGGGLVKPGGSLKLSCAASGFTLSSSAMSWVRQTPDRRLEWVATISVGGGKTYYPDSVKGRFTISRDNAKNTLYLQMNSLRSEDTAMYYCAKLISLYWGQGTTLTVSS
VL: DIKMTQSPSSMYASLGERVTITCKASQDINSYLTWFQQKPGKSPKTLIYRTNRLFDGVPSRFSGSGSGQDFFLTISSLEYEDMGIYYCLQYDDFPYTFGGGTKLEIK
notes: Mouse hybridoma IgG; heavy chain amplified with constant region primer MHCG1, kappa light chain; also called mAB003

- half-maximal concentration of enzymatic inhibition, headed EC50 nM on the sheet, IC50 in the legend [panel B] [4]: 0.752 nM
B4: BB7 murine monoclonal antibody (antibody, V domains shown)
VH: AVQLVESGGGLVKPGGSLKLSCAASGIIFSSSAMSWVRQTPEKRLEWVATISSGGRSTYYPDSVKGRFTVSRDSAKNTLYLQMDSLRSEDTAIYYCAKLISPYWGQGTTLTVSS
VL: AIKMTQSPSSMYASLGERVIITCKASQDINSYLTWFQQKPGKSPKTLIYLTNRLMDGVPSRFSGSGSGQEFLLTISGLEHEDMGIYYCLQYVDFPYTFGGGTKLEIK
notes: Mouse hybridoma IgG; heavy chain amplified with primer MHCG1, kappa light chain; also called mBB001
